Measured values taken from the DeepSol protein solubility set.

Assay: soluble on expression in E. coli; label from the status in PepcDB or PDB records

Sequence | soluble on expression in E. coli
MAHHHHHHMKGVKFRDNFVKLKEEGPRNATTTNFYGSYFLSENEHLFDINEFEKNLEMKMHKNEENLLILEVKNLNVSIANALRRIMLAEVPTIAIEKVNIFQNTGIIADEILCHRLGLIPFKFDADLINFKEEYEKYNHLNCFCFKLHVKFTKKAGSSETCQSIYSRDLKWCPINEHQKARFQKNPPRVVDDNILITKLSNGQEIELICFLEKGIGKTHAKWSPVCTAVYKMYPAFSFNTCEKFTQEEKKDLVNICPKNVFDVEDSDTLVAKNPLNCSSCRVCIEKYPKKISFEKVKNHFIFTIESTGCFSSADIFRKALLILKDKVVSVKEVLEDQTKA | not soluble
MAHHHHHHMKKLHQERGGNPMLAQQARRVLFATSITGQNIDARSIALLLNTAVYFGMESDARVVRECIDFCLKNDKFISLDIMPIVVTACATLQSRDAREVIELQAIKATRNARFLDAKGVTNVISAFSKTGINHEKLFGLLSMRVQTLARVGEFEAAHLVILANAFARLRFREQHVFSAIARRAMSLRERVTVNELVPLINAFSKAGLKDPKLSKRFAGKAMEYVDQMNAEQVALMFQAFAYFGIRYDQLFGVLTNRAVELIDEFNAQYISTTLASFQRIGINNPELFDNLAERALAVVQDHDAKDIALTVTALAHFGLKDEELFKRLASHAASIADQFDPVGLVNTIHAFARTFFLQEDMVVALSERCVYVCRHLDANQVRRLLWSLAKFQVKDPRILTPVFNRCLTLHQDFFSDPMGGEEIEEIFDVFGPSFCPPLYQLYMSRGNSV | not soluble
MAHHHHHHMKNSQMERKKYSVHNLVKLINERNKQNVRNKQPAVGADGTTSINAAGDGLDGETHSNFFHVEKNGQVGRKDKAGFPAEDGEIGGEYDVRDGSVDEEDECDGEAVRDGEAAPDEERADCTDGADTTLPPGGGGEVKLFMFDYNECQNQKCSCKKLYRFKKIKKAPINKKFKGIVLTPFCEKFFSINDKATVENFGLSVIDCSWKSLDLLKKAKFANQRKLPYIIAVNSINYGKPYKLSCLESLAFCLYVCGYNKQCTDILNIYKWSSSFVNLNGELLDMYKLCNTHEEVKSVEDEFIHNSLSEKEKRKEIDQYRVIYEDGYL | soluble
MAHHHHHHMKRGNEVAREMWAPSTWEQRMSLAGQFTTFCRTHEQPINEESRAALLVAILDVAPPTRPQHARMLRSMLEMNRTPLGMAILGLQKLAARSETRQARSLTKEGMDQFIRSRIDWNQRVVFRLACMTASRWSGIAALTPNNATLEADGTIILDWSVAPKTARADPHRAPRFVGIRGRDALDTITLCRTLQENEKLTNVTNAKVERALAPWDATAHSIKRGALRHAAQIVETCNLDPHVISQLAKHVDPFVLPQNTVRYFWKYTTVLTQVLPLVVLM | not soluble
MAHHHHHHMKRWRTANLFTPAEVQHAFAALHRNAEALYSVSGTSSPLGPFVCRRGGARRHRRDHIELPLRHMYEAKTVYEQLPVEVRLICAGLYEAALGYAQEALREPGVSSAARDGILSNLGRNSVLRVLRYPAGSGCRPHVDPGLCTALLVGSAGGLEMSTTDAVLTPFASGPGHNTAHFVSSPTSMRGEAATMPGTLPHWEPVLTAHTGEAVVMAGNMLGAVSGGALPGVLHRVRRDWVAETPRTDGQRSPPLHAACVGGGADAEVDAGSGVFRFNVIVELRPAHAKRWYAATSGQSQLSSASSPSSLA | not soluble
MAHHHHHHMKSFSVTPRVWRRISEKNAEEGYGNDLRYLRLMIESGGCHGYAYKFLFEENSELVADEDVVVAESDVVQLPQPKSQELRTVAEGEGEGDVGESKAKGPPPRLVVDKHSVAKLLSAVVDFHSELKGSAFVVIGNELVDKSCACAMSFSMKKQQQKV | not soluble
MAHHHHHHMKSTQSNLNDEEKVMNNNEKIIKNSYGELLSGCIKNKSSDMNTGDVYPCNDKNTKIVSIKNVYNNLYKTSDSLFFNEENEENRMENCIIRNDGRDMENKFSLYINNAENKDDNNMNNNKNDNINDNINDNINDNINDNINDNINDNINDNINNNINDNINNNIYHNQNNNIYHNIYHNNIINDGVIINEHTSHGDRSSFLNNNKNYNISNYTNHGHNINLNEEKNEKVYMHRNENNEKIHYSNNKDYIEKGNEKSVSSKKGEETYTNNSYNIHLKNMDVKNNERDMCKTMVNNSNIKENKKYSNKTIQQEENTEHEYNIINEEEEEHIKLFKNMNLEEIKNVLSKNDASTLKILLCTDNHLGYKENNSIQKKDSFNSFEEILFIAKKLNVDMILNSGDLFHKNKVSEYTLFKSMYIIRKYCHINENDKEMQQDDNINNNIYPNDLNNDDKSVSKAISEDEFCNMYNVQVKEIKNYKYEYYKNEHTLNNRNNIFDDTNDCMSNKSFIQDKNENLYKDDEDNTNGVKLLQRNDEMNNSDHPGEYLNYRNGKKQIKYYNKLKENNNEFFNKLKICSVNQKFKKLIPFYTIHGNHDYPYSYEYISPLDILNISNLINYIGKNNLNNIVVKPILLNKYKSKISIYAVGWMKDERLYRSFENNEVKFILPSDYKNRINILVLHQNRYIRNAYGNNTKNFIKESFIPKFIDLVIWGHEHFSKPYLEESILNSFYNIQLGSSVRTSICPNEYGDKFIGLLEIKNQRFRFLKINLETVRPFEMKDIKLADYELNFKSESVLKEFLHEQTHAILEKIKNNFSHEIKKYFFFKQLFHTKNKLETNTNKKHQTEYNNINICTKEINSHLNDYQDENLYKSLISISKEDINNFYNNLKNEDFYSSTFIHFAFADPYDTFDLLKIKKEVYEKPLLKIKVEYDDVNIINTQLFGSLFINSIANPSEFLSFYRKKIRQRDIYNNNDNNNDNINDNNNNNDHGKNNTNHDTYNNNYNNNRIDEDEGDKDLHNMEYINEYNKVFDILFDYCDIKNKLLILDENVIMDTIQNFILNTNSSFNFNTNVTSDFTSINSMVDKSFKNKVESIEKQMGNMSAENITDAYLTDVLKKIKNTS | not soluble
MAHHHHHHMKVVEKQLSKKTLKVKKETEKNSTGFMEKKKINKKEKKIYKNNYNNDNIKEEEDILLNQDDFEKKKKKSLENKILLSKKLKEIKLQFKDDDTINNSKKNNWIERLDITSTEYYYLKKTELFGISESREKQLQNITHMNVIQALQKLQELNIKFNRPYDFLADMLKSDIHMEKIRQKILKEHEQAEVRENNKLKRINKKFLKKCGSQKIKSHKEALEKKQNLLKIDQLKKTNNLQNLNVQEFFIKHSKDHDYKAGKITAKKDMKHKKKNFNNKAKKDKGIKNKQIGKKTSINNKRKASSKNSRKSKKMKKKHKHRK | soluble
MAHHHHHHMLLLKRPFLPARVAPLCAQRKVSRLITYYTKSHEYIKINDEDLTELKKKNNVKCKIGISNYGTEKLGEIVYIDISQNINEYVKKGECIATVESVKSVGDVYTPISGQIVDINNEIVDNVNLMNGNSESDGWILELLTNDVNEKEIMSFSEYKKMCEEEEQREATKIQQSERDCLEEKNKNKIFDLNDIKNIEEKTKK | soluble
MAHHHHHHMLQEYTGERCVSYRVNPQRGGCVETVAEVDAQDFFTEPGGLVTSPTTPSTPAGSTSARQARRRVVTTLERILLPDGYPSSVTEDLLPFALWDLAQVLAKNVTATLSTRAVLLGVGVGESKADLTSATLSWMMQDGTRMIGSVVFAPLIPQGLECRAKTWQLVADFTTDIANLLELCAPWLPGGQTTFRVVLVAASVVKALGSVCRNCTRASFTRHFALRNNAADIAAKASTRSSVGSFIGLVLGVAVAYIVPATSRSLNLVVFALGSVLHIFASYRSVRGVQLKHLNAPRLEWCLVQYSLFEAKVLIASKKDSGPLSVMPILDVSPRSANAAERLLILPSLRAVPPPSDSFYDSVRGFLCRYCFPPTLTLRIHCGASLFRLLQHQRGLTTRCKHELVQQVESALASRGIALLVDDVDMTYYVILPEYFTVEGVPAMWVRYKRQYGDDLTCMEAKQRQSAAARAAQRRQDGAASLSPSGAAVAAPDAGHGLDEAGRRAAQAEAELERLQKERVVVPPHILPLAYRQLWAYFYAFMHYRAVRLRREGPLTHAKDVLEGLHKNRSLECQRLHIITALRADGTLEAGHSDASDVPHSPAQFEEITSPASTTSDVPLERRVVPALATRAGGDDGDDGDNTAAPSYDGLHPQFIEFVRALRMTGWELDELLVGNEGYTTVVHYL | not soluble
